The target of this assay is T1, LMP1 (Epstein-Barr virus) peptide on HLA-A*02:01 (human).
T1 peptide: YLLEMLWRL
Put plainly: multimer staining.

B1: T cell receptor LMP1-TCR1 (TCR, V domains shown)
Valpha: AQSVSQHNHHVILSEAASLELGCNYSYGGTVNLFWYVQYPGQHLQLLLKYFSGDPLVKGIKGFEAEFIKSKFSFNLRKPSVQWSDTAEYFCALPRWDGGYNKLIFGAGTRLAVHP
Vbeta: DTEVTQTPKHLVMGMTNKKSLKCEQHMGHRAMYWYKQKAKKPPELMFVYSYEKLSINESVPSRFSPECPNSSLLNLHLHALQPEDSALYLCASSQEGTGELFFGEGSRLTVL
Take B1: the binding result was “recognises”.

B2: T cell receptor LMP1-TCR2 (TCR, V domains shown)
Valpha: AQKITQTQPGMFVQEKEAVTLDCTYDTSDPSYGLFWYKQPSSGEMIFLIYQGSYDQQNATEGRYSLNFQKARKSANLVISASQLGDSAMYFCAMREVALNAGGTSYGKLTFGQGTILTVHP
Vbeta: GAVVSQHPSWVICKSGTSVKIECRSLDFQATTMFWYRQFPKQSLMLMATSNEGSKATYEQGVEKDKFLINHASLTLSTLTVTSAHPEDSSFYICSASGAQPDDPQHFGDGTRLSIL
As to B2, the binding result was “recognises”.

The record behind these values is patent publication EP4763858A1 (dated 2026).
